In patent publication US20240368263A1 (PROMETHEUS BIOSCIENCES, published 2024):

T1: Fas/TNFSF6 (R&D Systems, cat. no. 126-FL/CF) (UniProt P48023 134-281)
T1 sequence (looked up): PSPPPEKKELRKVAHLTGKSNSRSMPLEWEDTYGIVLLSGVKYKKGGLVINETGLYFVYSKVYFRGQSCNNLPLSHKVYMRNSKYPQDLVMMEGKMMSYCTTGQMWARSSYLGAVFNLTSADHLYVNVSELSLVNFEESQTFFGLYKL

T2: membrane-associated human TL1A on transfected HEK293 cells (human, UniProt O95150 1-251)
T2 construct: whole, on cells
T2 sequence (looked up): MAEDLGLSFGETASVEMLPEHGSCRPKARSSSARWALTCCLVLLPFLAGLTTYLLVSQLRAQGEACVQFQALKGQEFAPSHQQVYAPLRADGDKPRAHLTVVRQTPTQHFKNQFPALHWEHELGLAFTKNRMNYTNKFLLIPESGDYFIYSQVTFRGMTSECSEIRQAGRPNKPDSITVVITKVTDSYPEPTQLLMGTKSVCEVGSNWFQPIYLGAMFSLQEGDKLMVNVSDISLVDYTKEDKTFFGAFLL

T3: human TL1A (Fitzgerald, Prod. #30R-AT070) (human, UniProt O95150 72-251, limits assumed, biotinylated with EZ-Link Sulfo-NHS-LC-Biotin where used as soluble antigen)
T3 construct: also called TNFSF15; biotinylated human TL1A
T3 sequence (looked up): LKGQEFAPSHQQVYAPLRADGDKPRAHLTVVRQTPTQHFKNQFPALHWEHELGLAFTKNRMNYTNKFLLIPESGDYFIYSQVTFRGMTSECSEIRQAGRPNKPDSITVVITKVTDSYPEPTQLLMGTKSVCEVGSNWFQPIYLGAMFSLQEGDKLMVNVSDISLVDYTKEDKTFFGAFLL


Experiments:
[1] = target: TRAIL/TNFSF10 (R&D Systems, cat. no. 375-TL/CF) (UniProt P50591 114-281); assay: ELISA, antigen coated at 1 µg/ml, Fab titrated
Method: (§1) Next, all the Fab variants were characterized for their selectivity for human TL1A relative to other TNFSF members TRAIL, LIGHT and Fas. […] The plate was washed 3 times with PBS-T and blocked with 100 μl of 1% BSA/PBS. The block was discarded and the Fab variants or control antibodies (Fas/TNFSF6, R&D Systems, cat. no. AF126; TRAIL/TNFSF10, R&D Systems, cat. no. AF375; LIGHT/TNFSF14, R&D Systems, cat. no. AF664) were titrated in 50 μl 1% BSA/PBS and incubated for 1 h at 25° C. The plate was washed 3 times with PBS-T and secondary HRP-conjugated antibody (diluted 5,000-fold in 1% BSA/PBS) was added for 1 h at 25° C. The plate was washed 3 times with PBS-T and developed.

[2] = target: LIGHT/TNFSF14 (R&D Systems, cat. no. 664-LI/CF) (UniProt O43557 74-240); assay: ELISA, antigen coated at 1 µg/ml, Fab titrated
Method: as §1

[3] = target: T1, Fas/TNFSF6 (R&D Systems, cat. no. …); assay: ELISA, antigen coated at 1 µg/ml, Fab titrated
Method: as §1

[4] = target: T2, membrane-associated human TL1A on …; assay: flow cytometry, HEK293 cells transfected with human TL1A
Method: All the Fab variants were tested for binding to membrane-associated human TL1A. For these studies a HEK293 cell line that had been transfected with human TL1A was used. The 293 cells expressing membrane bound human TL1A were maintained in DMEM containing L-glutamine, glucose, sodium pyruvate, and phenol red (ThermoFisher cat #11995-065) plus 10% fetal bovine serum, 1X penicillin-streptomycin (Fisher cat #15140122) and 2 μg/ml puromycin (Gibco cat #A11138-03) in a 37° C. incubator with 5% CO2. Three days prior to the assay, a T-75 flask was seeded with 3×10⁶ cells so that the flask was 90-95% confluent on the day of the assay. The media was aspirated and the cell monolayer was gently washed with 5 ml PBS. Adherent cells were removed by repeatedly pipetting 10 ml ice cold 1% BSA/PBS against the monolayer. The cells were counted and 5×10⁵ were aliquoted for each sample to be analyzed. The cells were collected by centrifuging at 300× g at 4° C. for 5 minutes and the wash was discarded. The cells were resuspended in 100 μl Fab or IgG diluted in 1% BSA/PBS and placed on ice for 30 min. Next, the cells were washed with 1 ml 1% BSA/PBS and collected by centrifuging at 300× g at 4° C. for 5 min. The wash was discarded and 100 μl secondary goat F (ab′) 2 anti-human kappa FITC (Southern Biotech cat #2062-02) or goat F (ab′) 2 anti-human IgG PE (Southern Biotech cat #2043-09) conjugate, diluted 1:200 in BSA/PBS was added. Cells were placed on ice for 30 min. Finally, the cells were washed with 1 ml BSA/PBS, collected by centrifuging at 300× g at 4° C. for 5 min. The wash was removed and the cells were resuspended in 500 μl 1% BSA/PBS. One drop of Sytox AADvanced ReadyFlow Reagent (ThermoFisher cat #R37173) was added per sample and the samples were analyzed on the Attune NXT Flow Cytometer (ThermoFisher).

[5] = target: T3, human TL1A (Fitzgerald, Prod. …); assay: two ELISA formats: Fab on coated TL1A; captured Fab with biotinylated TL1A
Method: Fabs with the CDRs shown in Tables 19 to 22 were tested for binding to human TL1A in multiple formats. Next, uniform (saturating) quantities of soluble Fab variants were captured on the surface of an ELISA plate and soluble, biotinylated human TL1A was titrated as shown in FIGS. 10 to 13.

TRAIL/TNFSF10 (R&D Systems, cat. no. 375-TL/CF), sequence (P50591 114-281 limits assumed): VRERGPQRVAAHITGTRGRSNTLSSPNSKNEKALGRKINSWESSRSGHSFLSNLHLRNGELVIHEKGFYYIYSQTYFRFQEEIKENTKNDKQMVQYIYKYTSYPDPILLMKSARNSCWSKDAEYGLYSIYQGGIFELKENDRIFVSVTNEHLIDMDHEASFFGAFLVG
LIGHT/TNFSF14 (R&D Systems, cat. no. 664-LI/CF), sequence (O43557 74-240 limits assumed): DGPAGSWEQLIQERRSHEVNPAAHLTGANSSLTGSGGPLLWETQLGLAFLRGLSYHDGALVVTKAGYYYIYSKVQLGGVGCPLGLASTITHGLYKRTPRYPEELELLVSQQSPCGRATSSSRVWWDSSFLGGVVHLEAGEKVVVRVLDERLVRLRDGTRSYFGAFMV

binding result [1]	binding result [2]	binding result [3]	binding result [4]	binding result [5]	Binder
no binding	no binding	no binding	binds	binds	Clone 3-17L Fab (Fab, V domains shown, Fab) VH: QVQLVQSGAEVKKPGASVKVSCKASGFDIQDTYMHWVRQAPGQGLEWMGRIDPASGHLKYDPKFQGRVTITRDTSASTVYMELSSLRSEDTAVYYCARSGGLPDMWGQGTTVTVSS VL: EIVLTQSPGTLSLSPGERATLSCRASSSVSYMYWYQQKPGQAPRLLIYATSNLASGIPDRFSGSGSGTDFTLTISRLEPEDFAVYYCQQWQGNPRTFGGGTKLEIK
no binding	no binding	no binding	binds	binds	Clone H2-2 Fab (Fab, V domains shown, Fab; also called Clone 112-2) VH: QVQLVQSGAEVKKPGASVKVSCKASGFDIQDTYMHWVRQAPGQGLEWMGRIDPASGHSKYDPKFQVRATITTDTSASTAYLQLSSLRSEDTAVYYCARSGGLPDFWGQGTTVTVSS VL: EIVLTQSPGTLSLSPGERATLSCRASSSVSYMYWYQQKPGQAPRLLIYATSNLASGIPDRFSGSGSGTDFTLTISRLEPEDFAVYYCQQWSGNPRTFGGGTKLEIK
no binding	no binding	no binding	binds	binds	Clone A1 Fab (Fab, V domains shown, Fab) VH: QVQLVQSGAEVKKPGASVKVSCKASGFDIQDTYMHWVRQAPGQGLEWMGRIDPASGHLKYDPKFQNRVTMTRDTSTSTVYMELSSLRSEDTAVYYCARSGGLPDKWGQGTTVTVSS VL: EIVLTQSPGTLSLSPGERATLSCGASSSVSYMYWYQQKPGQAPRLLIYATSNLASGIPDRFSGSGSGTDFTLTISRLEPEDFAVYYCQQWEGNPRTFGGGTKLEIK
no binding	no binding	no binding	binds	binds	Clone H2-5 Fab (Fab, V domains shown, Fab; also called Clone 112-5) VH: QVQLVQSGAEVKKPGASVKVSCKASGFDIQDTYMHWVRQAPGQGLEWMGRIDPASGHYKYDPKFQVRATITTDTSASTAYLQLSSLRSEDTAVYYCARSGGLPDFWGQGTTVTVSS VL: EIVLTQSPGTLSLSPGERATLSCRASSSVSYMYWYQQKPGQAPRLLIYATSNLASGIPDRFSGSGSGTDFTLTISRLEPEDFAVYYCQQWSGNPRTFGGGTKLEIK
no binding	no binding	no binding	binds	binds	Clone 3-17L V-A Fab (Fab, V domains shown, Fab) VH: QVQLVQSGAEVKKPGASVKVSCKASGFDIQDTYMHWVRQAPGQGLEWMGRIDPASGHLKYDPKFQGRVTITRDTSASTAYMELSSLRSEDTAVYYCARSGGLPDMWGQGTTVTVSS VL: EIVLTQSPGTLSLSPGERATLSCRASSSVSYMYWYQQKPGQAPRLLIYATSNLASGIPDRFSGSGSGTDFTLTISRLEPEDFAVYYCQQWQGNPRTFGGGTKLEIK
no binding	no binding	no binding	binds	binds	Clone 17L-1 Fab (Fab, V domains shown, Fab) VH: QVQLVQSGAEVKKPGASVKVSCKASGFDIQDTYMHWVRQAPGQGLEWMGRIDPASGHLKYDPKFQRRVTMTRDTSTSTVYMELSSLRSEDTAVYYCARSGGLPDMWGQGTTVTVSS VL: EIVLTQSPGTLSLSPGERATLSCRASSSVSYMYWYQQKPGQAPRLLIYATSNLASGIPDRFSGSGSGTDFTLTISRLEPEDFAVYYCQQWQGNPRTFGGGTKLEIK
no binding	no binding	no binding	binds	binds	Clone 16 Fab (Fab, V domains shown, Fab; also called Clone 16L) VH: QVQLVQSGAEVKKPGASVKVSCKASGFDIQDTYMHWVRQAPGQGLEWMGRIDPASGHVKIDPKFQVRVTMTRDTSTSTVYMELSSLRSEDTAVYYCARSGGLPDMWGQGTTVTVSS VL: EIVLTQSPGTLSLSPGERATLSCRASSSVSYMYWYQQKPGQAPRLLIYATSNLASGIPDRFSGSGSGTDFTLTISRLEPEDFAVYYCQQWQGNPRTFGGGTKLEIK
no binding	no binding	no binding	binds	binds	Clone L3-13 Fab (Fab, V domains shown, Fab) VH: QVQLVQSGAEVKKPGASVKVSCKASGFDIQDTYMHWVRQAPGQGLEWMGRIDPASGHTKYDPKFQGRATITTDTSASTAYLQLSSLRSEDTAVYYCARSGGLPDFWGQGTTVTVSS VL: EIVLTQSPGTLSLSPGERATLSCRASSSVSYMYWYQQKPGQAPRLLIYATSNLASGIPDRFSGSGSGTDFTLTISRLEPEDFAVYYCQQWKGNPRTFGGGTKLEIK
no binding	no binding	no binding	binds	binds	Clone E1 Fab (Fab, V domains shown, Fab) VH: QVQLVQSGAEVKKPGASVKVSCKASGFDIQDTYMHWVRQAPGQGLEWMGRIEPASGHLKYDPKFQERVTMTRDTSTSTVYMELSSLRSEDTAVYYCARSGGLPDKWGQGTTVTVSS VL: EIVLTQSPGTLSLSPGERATLSCGASSSVSYMYWYQQKPGQAPRLLIYATSNLASGIPDRFSGSGSGTDFTLTISRLEPEDFAVYYCQQWEGNPRTFGGGTKLEIK
no binding	no binding	no binding	binds	binds	Clone H3-1 Fab (Fab, V domains shown, Fab) VH: QVQLVQSGAEVKKPGASVKVSCKASGFDIQDTYMHWVRQAPGQGLEWMGRIDPASGHTKYDPKFQGRATITTDTSASTAYLQLSSLRSEDTAVYYCARSGGLPDLWGQGTTVTVSS VL: EIVLTQSPGTLSLSPGERATLSCRASSSVSYMYWYQQKPGQAPRLLIYATSNLASGIPDRFSGSGSGTDFTLTISRLEPEDFAVYYCQQWSGNPRTFGGGTKLEIK
